Data reported in PMC10253715.

Target: CD9-EGFP-FRB (UniProt P21926)

luciferase activity in EVs released from co-transfected HEK-293 cells, rapamycin dose series for 24 h (rapamycin is the bridging compound): 3 fold
Substance: mCherry-FKBP12-luciferase
